Test results published in US8557986B2, “Method of producing polysaccharide derivatives” (Seikagaku Corporation, priority 2006, dated 2013).

What was measured:
[1] = Test Example 2: passage of 1.0% (w/v) aqueous solution through 0.22 μm porous filter; format: physicochemical; conditions: Millex-GV 0.22 μm pore diameter, room temperature, absorbance before and after filter passage
Method: Each of the aqueous solutions (test solutions) was injected into a rear portion of a syringe (1 mL in volume: manufactured by TERUMO Corporation) equipped with a porous filter (Millex-GV of 0.22 μm pore diameter: manufactured by Millipore Corporation) and was pressed out with a piston at room temperature to pass through the porous filter.
The diclofenac-based absorbance (peak top) at about 280 nm was measured for each of the test solutions before, and after the filter passage of at least 0.5 mL. The filter passage coefficient of each test solution was expressed by a concentration of the diclofenac content in the test solution before and after the filter passage that was calculated from the change in measured absorbance.

[2] = Method: The aminoethanol-diclofenac-introduced sodium hyaluronate prepared in Reference Examples 1 and 2 were tested by the same procedure.

Substance: aminoethanol-diclofenac-introduced sodium hyaluronate [Reference Example 4]
- filter passage coefficient [1]: 11.0%

Substance: aminoethanol-diclofenac-introduced sodium hyaluronate [Reference Example 3]
- filter passage coefficient [1]: 96.9%

Substance: aminoethanol-diclofenac-introduced sodium hyaluronate [Reference Example 1]
- solubility in distilled water (appearance of the solution) [2]: not dissolved in distilled water but yielded a white suspension

Substance: aminoethanol-diclofenac-introduced sodium hyaluronate [Reference Example 2]
- solubility in distilled water (appearance of the solution) [2]: homogeneously dissolved in distilled water and yielded clear and viscous aqueous solutions

Substance: aminoethanol-diclofenac-introduced sodium hyaluronate [Example 1]
- filter passage coefficient [1]: 95.3%

Substance: aminoethanol-diclofenac-introduced sodium hyaluronate [Example 3]
- solubility in distilled water (appearance of the solution) [2]: homogeneously dissolved in distilled water and yielded clear and viscous aqueous solutions

Substance: aminoethanol-diclofenac-introduced sodium hyaluronate [Example 2]
- solubility in distilled water (appearance of the solution) [2]: homogeneously dissolved in distilled water and yielded clear and viscous aqueous solutions
